Reference: publication PMC3818214, “Novel Disulfide Bond-Mediated Dimerization of the CARD Domain Was Revealed by the Crystal Structure of CARMA1 CARD” (PLoS ONE, 2013)

Target: the molecule itself
Experiment: SEC-MALS; Superdex 200 HR 10/30, 20 mM Tris HCl, 150 mM NaCl, without DTT; mini-DAWN EOS and Optilab DSP detectors

B1: mouse CARMA1 CARD (amino acids 14-109) with C-terminal His-tag (domain or fragment, UniProt Q8CIS0 14-109, looked up)
chain: TLKDEEEALWDNVECNRHMLSRYINPAKLTPYLRQCKVIDEQDEDEVLNAPMLPSKINRAGRLLDILHTKGQRGYVVFLESLEFYYPELYKLVTGK
notes: CARMA1 (CARD11), mouse, CARD domain, amino acids 14-109; the solution experiments used the plain protein; Model built from residue 22 to 108, loop 64-70 missing; Vector pOKD (home-made); also called CARD11 CARD; not shown: His-tag, C-terminal, kept
stoichiometry N: 2
